Reference: US20090317414A1 (4G VACCINES, published 2009)

T1: MHC class I H-2K^b on RMA-S cells (C57BL/6 TAP2-deficient cells) (mouse, UniProt P01887 21-119; P01901 22-369)
T1 construct: whole, on cells; Cell surface H-2K^b stabilised by added peptide and detected with anti-H-2K^b antibody HB-158
T1 sequence (MHC heavy, looked up): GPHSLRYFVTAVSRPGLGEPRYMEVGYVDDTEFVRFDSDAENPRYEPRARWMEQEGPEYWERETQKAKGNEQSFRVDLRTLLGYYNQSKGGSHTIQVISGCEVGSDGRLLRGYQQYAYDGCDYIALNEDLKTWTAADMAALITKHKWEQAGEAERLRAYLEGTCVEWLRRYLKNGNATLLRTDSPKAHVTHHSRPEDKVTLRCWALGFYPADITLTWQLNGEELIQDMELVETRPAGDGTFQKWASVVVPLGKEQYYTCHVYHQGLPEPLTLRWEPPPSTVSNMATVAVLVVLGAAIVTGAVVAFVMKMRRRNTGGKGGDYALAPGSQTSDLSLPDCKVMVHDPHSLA
T1 sequence (b2m, looked up): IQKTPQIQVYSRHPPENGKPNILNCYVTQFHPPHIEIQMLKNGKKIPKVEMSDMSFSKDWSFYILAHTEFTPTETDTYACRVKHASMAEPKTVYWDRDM

B1: MUC1-8 (SAPDTRPA) (peptide)
peptide: SAPDTRPA
notes: Synthetic peptide, purity >95%; also called MUC1-8 peptide; parent non-canonical peptide MUC1-8
B2: soluble H-2K^b (soluble extracellular domains; heavy chain residues 1-274 with C-terminal His-tag and β2-microglobulin residues 1-99) (other)
chain: GPHSLRYFVTAVSRPGLGEPRYMEVGYVDDTEFVRFDSDAENPRYEPRARWMEQEGPEYWERETQKAKGNEQSFRVDLRTLLGYYNQSKGGSHTIQVISGCEVGSDGRLLRGYQQYAYDGCDYIALNEDLKTWTAADMAALITKHKWEQAGEAERLRAYLEGTCVEWLRRYLKNGNATLLRTDSPKAHVTHHSRPEDKVTLRCWALGFYPADITLTWQLNGEELIQDMELVETRPAGDGTFQKWASVVVPLGKEQYYTCHVYHQGLPEPLTLRWEPPPSTVSNM

Tests used:
[1] = target: B2; experiment: inhibition assay with soluble H-2K^b, 37° C.
[2] = target: B2; experiment: inhibition assay with soluble H-2K^b, 23° C.
[3] = target: B2; experiment: inhibition assay with soluble H-2K^b, 4° C.
[4] = target: T1, MHC class I H-2K^b on RMA-S cells …; experiment: peptide stabilisation assay on RMA-S cells, flow cytometry with anti-H-2K^b
Procedure: MHC class I molecules in the murine cell line RMA-S (C57BL/6 TAP2-deficient cells) can be used to measure the direct binding of peptides to class I molecules in vitro. […] The cells were washed once again and 100 μl (1:500 dilution) of FITC-conjugated sheep (Fab′)₂ anti-mouse immunoglobulin was added and incubated for 45 min at 4° C.; after further washing, cells were analyzed by FACScan.

[5] = target: B2; experiment: inhibition assay with soluble H-2K^b, 23° C. and 37° C.
[6] = target: B2; experiment: inhibition assay with soluble H-2K^b, 23° C.; remark: listed apart in the source
[7] = target: SEV9 ([…]), Sendai virus NP324-332 (Sendai virus); experiment: inhibition assay with soluble H-2K^b, 37° C.
[8] = target: SEV9 ([…]), Sendai virus NP324-332 (Sendai virus); experiment: inhibition assay with soluble H-2K^b, 23° C.
[9] = target: SEV9 ([…]), Sendai virus NP324-332 (Sendai virus); experiment: inhibition assay with soluble H-2K^b, 4° C.

Row | Binder | Kd [1] | Kd [2] | Kd [3] | peptide concentration that stabilised H-2K^b [4] | fold increase in affinity against MUC1-8 [5] | fold increase in affinity against MUC1-8 [6] | Kd [7] | Kd [8] | Kd [9]
1 | SIINFEKL [OVA8 (SIINFEKL), Chicken ovalbumin257-264] | 82 nM | 10 nM | 6 nM |  |  |  |  |  | 
2 | B1 | 37000 nM | 877 nM | 433 nM | > 100000 nM |  |  |  |  | 
3 | SAPDTRPL (Synthetic peptide) [MUC1-8-8L (SAPDTRPL)] | 8900 nM | 250 nM | 150 nM | > 1000 nM | ≥ 3 fold |  |  |  | 
4 | SAPDFRPL (Synthetic peptide) [MUC1-8-5F8L (SAPDFRPL)] | 300 nM | 60 nM | 160 nM | > 1 nM |  | 14 fold |  |  | 
5 | SAPDFRPA (Synthetic peptide) [MUC1-8-5F (SAPDFRPA)] | 4900 nM | 130 nM | 460 nM | > 100 nM | ≥ 7 fold |  |  |  | 
6 | B2 |  |  |  |  |  |  | 30 nM | 3 nM | 5 nM
